Experiments:
[1] = biological target: CD28 expressed on Jurkat.E6 cells (human) (UniProt P10747); assay: flow cytometry on Jurkat.E6 cells at 25 C, secondary goat anti-mouse IgG staining, one-site specific binding fit
[2] = biological target: CD3ε of the TCR-CD3 complex expressed on Jurkat cells (T-cell Surface Glycoprotein CD3 Epsilon) (human) (UniProt P07766); assay: as above

anti-CD28 monoclonal antibody (mouse anti-human, isotype IgG2a, Clone 9.3, BioXCell Catalog# BE0248)
Kd [1]: 1.6 nM

anti-CD3 monoclonal antibody clone UCHT1 (mouse anti-human, isotype IgG1, BioXCell Catalog# BE0231)
Kd [2]: 1.4 nM

anti-CD3 monoclonal antibody clone OKT3 (mouse anti-human, isotype IgG2a, BioXCell Catalog# BE0001-2)
Kd [2]: 1.5 nM

From US20190177716A1
